Experimental findings from patent US20210380640A1 are described below.

Like-named read-outs stand apart in the source and are kept apart here.

As a reminder, the EC50 is the concentration needed to bring the measured effect to its halfway point.

Assay [1] deals with SARS-CoV-2 spike protein (SARS-CoV-2) (UniProt P0DTC2).
Assay [2] shares this target. This is another data set of the same source.
The target of assay [3] is full-length recombinant MrkA protein with an N-terminal 6xHis-SUMO-tag (MyBiosource, MBS1248970) (Klebsiella pneumoniae) (UniProt P12267). Description: sandwich ELISA 3, PCC immobilised, MrkA 50 nM; reference cy(LLFFF). On the technique in general: ELISA stands for enzyme-linked immunosorbent assay.
Assay [4] has the same target. Description: sandwich ELISA 2, PCC immobilised, MrkA 25 nM; reference cy(LLFFF).
The target is the same in assay [5]. Description: sandwich ELISA 6, PCC immobilised, MrkA 25 nM; reference cy(LLFFF).
For assay [6] the target is unchanged. The experiment in a line: sandwich ELISA 5, PCC immobilised, MrkA 25 nM; reference cy(LLFFF).
The target is the same in assay [7]. The experiment in a line: sandwich ELISA 3, PCC immobilised, MrkA 50 nM; the reference itself.
Assay [8] shares this target. The experiment in a line: sandwich ELISA 2, PCC immobilised, MrkA 25 nM; the reference itself.
Assay [9] has the same target. Description: sandwich ELISA, biotinylated PCC immobilised, His-SUMO-MrkA titrated (FIG. 3A).
The target is the same in assay [10]. The experiment in a line: sandwich ELISA 1, PCC immobilised, [MrkA] N/A; the reference itself.
Assay [11] shares this target. The experiment in a line: ELISA, PCC immobilised, full-length recombinant MrkA.
Assay [12] has the same target. Description: sandwich ELISA 4, PCC immobilised, MrkA 100 nM; the reference itself.
The target is the same in assay [13]. The experiment in a line: sandwich ELISA 5, PCC immobilised, MrkA 25 nM; the reference itself.
Assay [14] shares this target. Description: sandwich ELISA 6, PCC immobilised, MrkA 25 nM; the reference itself.
For assay [15] the target is unchanged. The experiment in a line: sandwich ELISA 4, PCC immobilised, MrkA 100 nM; reference cy(LLFFF).

In [1], G1Gld (peptide) yielded an EC50 of 4.2 nM. Substance GGarn (peptide) returned a concentration for a half-maximal effect (EC50) in [1] of 3.4 nM.

In assay [2], aakrG (peptide) displayed an EC50 of 16.4 nM.

The substance andkd (peptide) yielded an EC50 in [1] of 4.2 nM. Regarding avtr (peptide), in assay [2], the EC50 came out at 3.4 nM. In the case of cy(AAFFF) (peptide), in assay [3], the Relative affinity (ratio of ELISA signal to cy(LLFFF)) is 0.15. Regarding cy(ALFFF) (peptide), the Relative affinity (ratio of ELISA signal to cy(LLFFF)) in assay [4] is 0.53. Take cy(DLFFF) (peptide): the Relative affinity (ratio of ELISA signal to cy(LLFFF)) in assay [5] worked out at 0.21. cy(HLFFF) (peptide): in assay [5], the Relative affinity (ratio of ELISA signal to cy(LLFFF)) is 0.81. Consider cy(LAFFF) (peptide), for which, in [4], the Relative affinity (ratio of ELISA signal to cy(LLFFF)) amounted to 0.26.

On to cy(LLAFF) (peptide), for which the Relative affinity (ratio of ELISA signal to cy(LLFFF)) in assay [4] was determined as 0.59. For the substance cy(LLFAF) (peptide), the Relative affinity (ratio of ELISA signal to cy(LLFFF)) in assay [4] was determined as 0.1.

As to cy(LLFFA) (peptide), the Relative affinity (ratio of ELISA signal to cy(LLFFF)) in assay [4] worked out at 0.04.

cy(LLFFF)+R3 (peptide): the Relative affinity (ratio of ELISA signal to cy(LLFFF)) in assay [6] came out at 0.9. As to cy(LLFFF)+R6 (peptide), the Relative affinity (ratio of ELISA signal to cy(LLFFF)) in [6] was found to be 1.22. As for cy(LLFFF)+R9 (peptide), in assay [6], the Relative affinity (ratio of ELISA signal to cy(LLFFF)) came out at 0.58. With cy(LLFFF), biotinylated (peptide), the Relative affinity (ratio of ELISA signal to cy(LLFFF)) in assay [7], in [8], in assay [10], in assay [12], in assay [13] and in assay [14] was 1 in each case. Moreover, the results for the EC50 in [9] and in assay [11] were 50 nM and 230 nM, respectively.

Take cy(TTFFF) (peptide): in assay [15], the Relative affinity (ratio of ELISA signal to cy(LLFFF)) stood at 0.04. On to dpvtd (peptide), for which the EC50 in [1] was 4.1 nM.

On to dyGvd (peptide), for which, in assay [2], the concentration giving a half-maximal response (EC50) stood at 2.9 nM. For the substance dynGp (peptide), the half-maximal effective concentration (EC50) in assay [2] was found to be 2.9 nM. In assay [2], edlvk (peptide) gave an EC50 of 4.3 nM. Same read-out and setting: for eprnn (peptide) the value was 11 nM; for fdtta (peptide), 3.2 nM; for nkvyG (peptide), 4.4 nM. With nnpdh (peptide), the EC50 in assay [1] was 3.8 nM. sdyre (peptide) had a concentration giving a half-maximal response (EC50) in assay [1] of 4.2 nM. Turning to senfd (peptide), in [2], the half-maximal effective concentration (EC50) was found to be 3.8 nM. Still for that read-out and setting: for skdfd (peptide) the value was 3.2 nM. skevd (peptide) displayed a half-maximal effective concentration (EC50) in [2] of 4.6 nM. As for tGarn (peptide), the EC50 in assay [1] stood at 3.1 nM. The substance tsthG (peptide) registered an EC50 in assay [2] of 3.6 nM. Substance ydrsd (peptide) yielded an EC50 in assay [1] of 4.2 nM. In [2], ykdld (peptide) had a concentration for a half-maximal effect (EC50) of 4 nM.
